The numbers were not newly measured in paper PMC3012698, “Characterization of a Novel Interaction between Bcl-2 Members Diva and Harakiri” (PLoS ONE, 2010), which cites them from elsewhere.

Like-named read-outs stand apart in the source and are kept apart here.

Series [1] addresses Mcl-1 (UniProt Q07820).
Series [2] has as its target BFL-1 (Homo sapiens) (UniProt Q16548).
Series [3] has the same target. This is another data set of the same source.
The target of series [4] is Bcl-2 (Homo sapiens) (UniProt P10415).
For another series, the target named is Bcl-w (Homo sapiens) (UniProt Q92843).
In series [5] the target is Mcl-1 (UniProt Q07820). The source holds these as a separate data set.
In series [6] the target is Bcl-2 (Homo sapiens) (UniProt P10415). The source holds these as a separate data set.

Sequence of Bcl-2 (Homo sapiens) (P10415 whole entry): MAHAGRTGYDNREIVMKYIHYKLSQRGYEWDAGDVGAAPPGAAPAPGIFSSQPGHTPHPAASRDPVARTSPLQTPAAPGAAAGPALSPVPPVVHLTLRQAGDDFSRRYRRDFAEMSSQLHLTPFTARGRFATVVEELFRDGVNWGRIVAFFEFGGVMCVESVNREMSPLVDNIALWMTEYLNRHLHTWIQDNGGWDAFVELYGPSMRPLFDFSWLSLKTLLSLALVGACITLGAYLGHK
Sequence of Noxa BH3 (Q13794 19-43): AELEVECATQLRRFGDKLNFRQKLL
Sequence of Bik BH3 (Q13323 51-75): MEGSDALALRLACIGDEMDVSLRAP
Sequence of Mcl-1 (Q07820 whole entry): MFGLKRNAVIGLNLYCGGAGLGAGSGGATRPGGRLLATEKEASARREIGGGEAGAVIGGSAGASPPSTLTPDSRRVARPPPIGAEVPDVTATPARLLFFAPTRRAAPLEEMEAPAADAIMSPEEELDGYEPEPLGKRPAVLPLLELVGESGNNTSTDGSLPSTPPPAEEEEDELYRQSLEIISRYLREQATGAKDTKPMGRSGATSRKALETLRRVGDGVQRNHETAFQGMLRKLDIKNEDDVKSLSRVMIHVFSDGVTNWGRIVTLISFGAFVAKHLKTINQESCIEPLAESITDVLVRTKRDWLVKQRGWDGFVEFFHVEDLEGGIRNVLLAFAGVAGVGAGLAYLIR
Sequence of BFL-1 (Homo sapiens) (Q16548 whole entry): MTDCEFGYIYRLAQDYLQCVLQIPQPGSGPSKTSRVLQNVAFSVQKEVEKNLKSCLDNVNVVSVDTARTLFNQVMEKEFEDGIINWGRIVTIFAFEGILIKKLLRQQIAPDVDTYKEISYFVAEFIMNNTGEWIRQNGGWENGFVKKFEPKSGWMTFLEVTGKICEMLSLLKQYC
Sequence of Bcl-w (Homo sapiens) (Q92843 2-193): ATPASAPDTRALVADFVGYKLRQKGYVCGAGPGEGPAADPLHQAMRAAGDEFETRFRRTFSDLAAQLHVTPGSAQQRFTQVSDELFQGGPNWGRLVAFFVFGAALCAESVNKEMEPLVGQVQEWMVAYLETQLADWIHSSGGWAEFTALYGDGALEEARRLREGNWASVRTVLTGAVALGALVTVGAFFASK

The Kd is the free concentration of one partner at which half of the binding sites on the other are occupied at equilibrium, for simple one-to-one binding. Take Bik BH3 (from UniProt Q13323): the Kd was 109 nM with Mcl-1 [1] and over 2500 nM with BFL-1 (Homo sapiens) [2].
Harakiri BH3 (from UniProt O00198): the Kd with BFL-1 (Homo sapiens) [3], with Bcl-2 (Homo sapiens) [4] and with Bcl-w (Homo sapiens) was over 2500 nM each time.
For Noxa BH3 (from UniProt Q13794), the Kd is 25 nM with Mcl-1 [5] and over 2500 nM with Bcl-2 (Homo sapiens) [6].
